# Measured values as given in patent US20240317834A1, “COMPOSITIONS AND METHODS FOR NEUROLOGICAL DISEASES” (CODA BIOTHERAPEUTICS, INC., priority 2020, published 2024).
# Key:
# Lenti-X 293T cells = experiment: YFP fluorescence quenching anion reporter plate reader assay of engineered receptors stimulated with acetylcholine or a non-native ligand; assay type: cell-based
# Method in brief: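 YFP quench was followed for about 1 min 43 s after ligand delivered in iodide-based ECS, pH 7.2. Values are end-of-read fluorescence (last 10 s) divided by the pre-ligand baseline (15 s). Cells were LX293T, transfected with receptor DNA a day before the assay.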
# rat DRG neurons = experiment: Rheobase shift and evoked action potentials in rat DRG neurons (current clamp); assay type: cell-based
# Experimental: Using whole cell manual patch clamp electrophysiology in HEK293 cells, rat DRG neurons and rat hippocampal neurons, the EC50 of the various engineered receptors disclosed herein to Ach and non-native ligands was measured using the Hill equation with peak current measurements from escalating doses of ligand. The rheobase shift was also measured in rat DRG neurons, which reflects the efficacy of the receptors. To calculate the rheobase, first, the amount of current that can produce an action potential was determined. Then the ligand was added, followed by a step wise increase in the current injected up to 700 pA.
# For manual patch clamp experiments, Cells plated on coverslips were visualized at 10× and 40× on an inverted fluorescence microscope (Olympus). Recordings were made with an Axopatch 200B amplifier and Digidata 1550B (Molecular Devices) at RT using 3-6 MOhm glass patch electrodes (Sutter, BF150-86-10). Unless otherwise stated, recordings were made in extracellular solution (ECS) containing: 140 mM sodium chloride, 4 mM potassium chloride, 1 mM magnesium chloride, 2 mM calcium chloride, 10 mM HEPES, and 10 mM D-(+)-glucose (pH=7.3 with sodium hydroxide, osmolarity=305−315 mOsm). An 8-line reservoir (AutoMate Scientific) in combination with an 8-channel zero-dead-volume perfusion pencil (AutoMate Scientific) was used for perfusion. Data was acquired using pClamp software (Molecular Devices). Traces were either analyzed in Clampfit (Molecular Devices) or using custom Python code. Plotting and statistics were performed in GraphPad Prism.
# DRG rheobase experiments were performed in current clamp mode using a potassium-based internal solution containing: 100 mM potassium D-gluconate, 28 mM potassium chloride, 1 mM magnesium chloride hexahydrate, 5 mM magnesium ATP, 10 mM HEPES, and 0.5 mM EGTA (pH=7.2 with potassium hydroxide, osmolarity=290-295 mOsm, calculated liquid junction potential=−13.5 mV). To measure DRG input resistance and rheobase, 500 ms current steps (−200 pA to 700 pA) were applied the membrane in the presence and absence of a compound. No holding current was applied to the membrane for cells included in the final datasets. Data were acquired at 10 kHz, with Bessel filter at 2 kHz and series resistance compensation at 100%. Rheobase was defined as the smallest depolarizing current injection required to cause an action potential to fire in the cell. In a subset of cells, the rheobase was ambiguous, since the action potential appeared to be graded in amplitude. In these cases, a […] of the trace clarified the rheobase. Input resistance was measured from the negative current injections, calculated as the difference in membrane potential at steady state divided by the current injection amplitude and then averaged across the four negative current steps for each recording. Resting membrane potential was measured from the first 100 ms of each sweep, averaged for each recording, and corrected for liquid junction potential. One-way ANOVA with multiple comparisons was used to test for significance of difference in rheobase and input resistance between baseline, drug, and wash conditions.
molecule,measurement,setting,value
"CODA1027: engineered chimeric LGIC receptor, R101F, L131D in SEQ ID NO: 33 (protein, synthetic sequence of chimeric LGIC) MRCSPGGVWLALAASLLHVSLQGEFQRKLYKELVKNYNPLERPVANDSQPLTVYFSLSLLQIMDVDEKNQVLTTNIWLQMSWTDHYLQWNVSEYPGVKTVFFPDGQIWKPDILLYNSADERFDATFHTNVDVNSSGHCQYLPPGIFKSSCPMDLKNFPMDVQTCKLKFGSWSYGGWSLDLQMQEADISGYIPNGEWDLVGIPGKRSERFYECCKEPYPDVTFTVTMRRRMGYYLIQMYIPSLLIVILSWISFWINMDAAPARVGLGITTVLTMTTQSSGSRASLPKVSYVKAIDIWMAVCLLFVFSALLEYAAVNFVSRQHKELLRFRRKRRHHKSPMLNLFQEDEAGEGRFNFSAYGMGPACLQAKDGISVKGANNSNTTNPPPAPSKSPEEMRKLFIQRAKKIDKISRIGFPMAFLIFNMFYWIIYKIVRREDVHNQ",YFP fluorescence quenching using CNL001,"Lenti-X 293T cells; 1 nM CNL001, first column",24.049%
same,YFP fluorescence quenching using CNL001,"Lenti-X 293T cells; 1 nM CNL001, second column",36.755%
same,YFP fluorescence quenching using TC-5619/Bradanicline,Lenti-X 293T cells; 1 nM brd,−10.07%
same,YFP fluorescence quenching using TC-5619/Bradanicline,Lenti-X 293T cells; 3 nM brd,−0.8%
same,YFP fluorescence quenching using Varenicline,"Lenti-X 293T cells; 3 nM var, first column",−3.367
same,YFP fluorescence quenching using Varenicline,"Lenti-X 293T cells; 3 nM var, second column",−0.431
same,YFP fluorescence quenching using CNL001,"Lenti-X 293T cells; 10 nM CNL001, first column",52.927%
same,YFP fluorescence quenching using CNL001,"Lenti-X 293T cells; 10 nM CNL001, second column",61.449%
same,YFP fluorescence quenching using TC-5619/Bradanicline,Lenti-X 293T cells; 10 nM brd,1.74%
same,YFP fluorescence quenching using TC-5619/Bradanicline,Lenti-X 293T cells; 30 nM brd,53.95%
same,YFP fluorescence quenching using Facinicline,Lenti-X 293T cells; 30 nM fac,−10.05
same,YFP fluorescence quenching using Varenicline,"Lenti-X 293T cells; 30 nM var, first column",−0.761
same,YFP fluorescence quenching using Varenicline,"Lenti-X 293T cells; 30 nM var, second column",2.989
same,YFP fluorescence quenching using CNL001,"Lenti-X 293T cells; 50 nM CNL001, first column",67.308%
same,YFP fluorescence quenching using CNL001,"Lenti-X 293T cells; 50 nM CNL001, second column",68.77%
same,YFP fluorescence quenching using ABT-126,Lenti-X 293T cells; 50 nM abt,−11.89%
same,YFP fluorescence quenching using CNL001,"Lenti-X 293T cells; 100 nM CNL001, first column",69.049%
same,YFP fluorescence quenching using CNL001,"Lenti-X 293T cells; 100 nM CNL001, second column",71.613%
same,YFP fluorescence quenching using CNL002,Lenti-X 293T cells; 100 nM CNL002,7.75%
same,YFP fluorescence quenching using ABT-126,Lenti-X 293T cells; 100 nM abt,−16.07%
same,YFP fluorescence quenching using AZD-0328,Lenti-X 293T cells; 100 nM azd0328,−4.76%
same,YFP fluorescence quenching using ABT-126,Lenti-X 293T cells; 300 nM abt,−11.21%
same,YFP fluorescence quenching using AZD-0328,Lenti-X 293T cells; 300 nM azd0328,−7.52%
same,YFP fluorescence quenching using TC-5619/Bradanicline,Lenti-X 293T cells; 300 nM brd,76.74%
same,YFP fluorescence quenching using Facinicline,Lenti-X 293T cells; 300 nM fac,−12.54
same,YFP fluorescence quenching using Varenicline,"Lenti-X 293T cells; 300 nM var, first column",2.966
same,YFP fluorescence quenching using Varenicline,"Lenti-X 293T cells; 300 nM var, second column",10.211
same,YFP fluorescence quenching using Varenicline,"Lenti-X 293T cells; 500 nM var, first column",15.278
same,YFP fluorescence quenching using Varenicline,"Lenti-X 293T cells; 500 nM var, second column",20.84
same,YFP fluorescence quenching using CNL001,"Lenti-X 293T cells; 1 uM CNL001, first column",71.811%
same,YFP fluorescence quenching using CNL001,"Lenti-X 293T cells; 1 uM CNL001, second column",69.907%
same,YFP fluorescence quenching using CNL002,Lenti-X 293T cells; 1 uM CNL002,61.97%
same,YFP fluorescence quenching using ABT-126,Lenti-X 293T cells; 1 uM abt,−9.38%
same,YFP fluorescence quenching using TC-6987,Lenti-X 293T cells; 1 uM tc6987,0.88
same,YFP fluorescence quenching using Varenicline,"Lenti-X 293T cells; 1 uM var, first column",37.104
same,YFP fluorescence quenching using Varenicline,"Lenti-X 293T cells; 1 uM var, second column",42.439
same,YFP fluorescence quenching using TC-6987,Lenti-X 293T cells; 10 uM tc6987,56.27
same,YFP fluorescence quenching using CNL002,Lenti-X 293T cells; 30 uM CNL002,65.77%
same,YFP fluorescence quenching using AZD-0328,Lenti-X 293T cells; 30 uM azd0328,74.9%
same,YFP fluorescence quenching using Facinicline,Lenti-X 293T cells; 30 uM fac,70.96
same,YFP fluorescence quenching using TC-6987,Lenti-X 293T cells; 500 uM tc6987,71.3
same,"percent quench of YFP fluorescence, 30 nM TC-6683",Lenti-X 293T cells; TC-6683 30 nM,1.189%
same,"percent quench of YFP fluorescence, 300 nM TC-6683",Lenti-X 293T cells; TC-6683 300 nM,0.939%
same,"percent quench of YFP fluorescence, 3 uM TC-6683",Lenti-X 293T cells; TC-6683 3 uM,1.327%
same,"percent quench of YFP fluorescence, 30 uM TC-6683",Lenti-X 293T cells; TC-6683 30 uM,−0.845%
same,"percent quench of YFP fluorescence, 100 uM TC-6683",Lenti-X 293T cells; TC-6683 100 uM,−3.136%
same,"percent quench of YFP fluorescence, 10 uM ach",Lenti-X 293T cells; acetylcholine 10 uM,−1.62%
same,"percent quench of YFP fluorescence, 50 uM ach",Lenti-X 293T cells; acetylcholine 50 uM,−1.6%
same,"percent quench of YFP fluorescence, 100 uM ach",Lenti-X 293T cells; acetylcholine 100 uM,−2.62%
same,"percent quench of YFP fluorescence, 300 uM ach",Lenti-X 293T cells; acetylcholine 300 uM,−6.12%
same,"percent quench of YFP fluorescence, 500 uM ach",Lenti-X 293T cells; acetylcholine 500 uM,−7.71%
same,"percent quench of YFP fluorescence, 1 mM ach",Lenti-X 293T cells; acetylcholine 1 mM,−5.73%
same,"percent quench of YFP fluorescence, 3 mM ach",Lenti-X 293T cells; acetylcholine 3 mM,33.69%
same,"Rheobase Shift; Rat DRG Neurons, +TC-5619 @ EC90",rat DRG neurons; +TC-5619 @ EC90,638 ± 63 pA
same,"Rheobase Shift; Rat DRG Neurons, Baseline","rat DRG neurons; Baseline, no ligand",100 ± 23 pA
